Data on one molecule can be found in US20180057581A1 (MorphoSys, published 2018).

Common to all, as to assay: MSD specificity profiling, coated protein, Camille at 10 nM
One assay addresses T1, Fibrinogen (bovine) (bovine, UniProt P02672 20-615; P02676 1-468; P12799 25-444).
T1 sequence (looked up) 1: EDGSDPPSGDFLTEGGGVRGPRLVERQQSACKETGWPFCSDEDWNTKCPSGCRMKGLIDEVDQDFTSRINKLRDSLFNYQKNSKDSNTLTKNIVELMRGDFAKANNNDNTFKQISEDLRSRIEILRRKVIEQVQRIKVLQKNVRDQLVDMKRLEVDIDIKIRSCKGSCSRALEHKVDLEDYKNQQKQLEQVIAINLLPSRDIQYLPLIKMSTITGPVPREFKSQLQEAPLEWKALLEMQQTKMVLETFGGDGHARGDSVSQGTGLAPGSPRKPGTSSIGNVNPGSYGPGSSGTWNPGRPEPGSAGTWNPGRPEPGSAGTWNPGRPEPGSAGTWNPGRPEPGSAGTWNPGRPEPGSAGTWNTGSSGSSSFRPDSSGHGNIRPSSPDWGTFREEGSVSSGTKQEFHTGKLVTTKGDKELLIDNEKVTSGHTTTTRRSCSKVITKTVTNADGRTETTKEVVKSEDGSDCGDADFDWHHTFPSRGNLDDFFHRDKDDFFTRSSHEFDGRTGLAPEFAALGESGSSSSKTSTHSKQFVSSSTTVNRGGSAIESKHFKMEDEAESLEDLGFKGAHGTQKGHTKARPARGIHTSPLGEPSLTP
T1 sequence (looked up) 2: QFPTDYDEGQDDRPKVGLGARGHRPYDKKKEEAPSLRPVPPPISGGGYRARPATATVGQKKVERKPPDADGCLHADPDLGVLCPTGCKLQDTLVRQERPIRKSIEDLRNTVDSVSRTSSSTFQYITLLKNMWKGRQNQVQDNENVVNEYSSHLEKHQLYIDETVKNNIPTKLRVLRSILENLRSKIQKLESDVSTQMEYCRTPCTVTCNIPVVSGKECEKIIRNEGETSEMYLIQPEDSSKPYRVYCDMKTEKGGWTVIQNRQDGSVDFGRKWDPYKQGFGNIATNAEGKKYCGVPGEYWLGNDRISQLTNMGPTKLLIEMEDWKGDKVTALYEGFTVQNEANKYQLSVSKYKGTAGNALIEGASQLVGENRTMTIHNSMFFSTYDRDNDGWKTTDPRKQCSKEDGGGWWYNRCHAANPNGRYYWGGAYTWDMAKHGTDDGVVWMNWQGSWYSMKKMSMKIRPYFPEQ
T1 sequence (looked up) 3: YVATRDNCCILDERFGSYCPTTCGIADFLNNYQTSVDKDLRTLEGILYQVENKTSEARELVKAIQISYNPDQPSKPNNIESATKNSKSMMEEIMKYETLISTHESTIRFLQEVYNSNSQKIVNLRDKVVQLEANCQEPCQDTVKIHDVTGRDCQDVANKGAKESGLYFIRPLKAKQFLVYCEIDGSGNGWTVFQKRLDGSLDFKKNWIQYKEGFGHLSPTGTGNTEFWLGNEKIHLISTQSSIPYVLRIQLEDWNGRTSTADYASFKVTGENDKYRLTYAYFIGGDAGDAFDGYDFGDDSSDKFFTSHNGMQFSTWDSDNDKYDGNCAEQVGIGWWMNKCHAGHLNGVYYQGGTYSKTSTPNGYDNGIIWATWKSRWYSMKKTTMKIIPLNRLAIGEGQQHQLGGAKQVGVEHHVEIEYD
As for the experimental part: (§1) For this specificity profiling test the different proteins and controls were coated on two 384-well MSD plates with a concentration of 1 μg/ml at 4° C. over night. Plates were blocked with BSA and washed three times with PBS with 0.05% (v/v) Tween 20. Antibody samples were diluted to 100 nM and 10 nM in assay buffer (PBS with 0.5% (w/v) BSA, 0.05% (v/v) Tween 20). […] Samples and controls were incubated for three hours at room temperature. The plates were washed three times and 30 μl detection antibody (ECL-labeled anti-human Fab) were added per well and incubated for 1 h. After washing, MSD Read Buffer T with surfactant was added and electrochemiluminescence signals were detected using a Sector Imager 6000 (Meso Scale Discovery, Gaithersburg, Md., USA).

The next assay addresses Lysozyme (chicken) (chicken, UniProt P00698 19-147). As for the experimental part: as §1
A further assay addresses Cytokine 1 (human) (human). As for the experimental part:
as §1

In assay [1] the target is Cell surface receptor 2 (human) (human). As for the experimental part:
as §1

Assay [2] concerns the target Cell surface receptor 3 (human) (human). As for the experimental part:
as §1

For another assay, the target named is Cytochrome c (cow) (cow, UniProt P62894 2-105). As for the experimental part:
as §1

The next assay has as its target T2, Lectin (Lens culinaris) (Lens culinaris, UniProt P02870 31-210; P02870 218-269, limits assumed).
T2 sequence (looked up) 1: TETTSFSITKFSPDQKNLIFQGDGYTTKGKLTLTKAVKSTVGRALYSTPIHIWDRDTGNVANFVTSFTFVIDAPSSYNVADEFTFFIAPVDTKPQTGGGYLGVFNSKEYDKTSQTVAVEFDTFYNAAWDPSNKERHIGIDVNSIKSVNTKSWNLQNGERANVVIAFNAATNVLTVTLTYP
T2 sequence (looked up) 2: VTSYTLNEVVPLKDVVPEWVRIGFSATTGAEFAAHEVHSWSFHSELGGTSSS
As for the experimental part:
as §1

The target of another assay is T3, Trypsinogen (cow) (cow, UniProt P00760 18-246).
T3 sequence (looked up): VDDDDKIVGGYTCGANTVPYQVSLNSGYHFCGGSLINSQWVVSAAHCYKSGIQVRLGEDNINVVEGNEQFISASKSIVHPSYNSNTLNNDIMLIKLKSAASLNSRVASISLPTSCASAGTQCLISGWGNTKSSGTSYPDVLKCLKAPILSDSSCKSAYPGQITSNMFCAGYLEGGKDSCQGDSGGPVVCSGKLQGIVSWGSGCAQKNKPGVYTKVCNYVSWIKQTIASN
As for the experimental part: as §1

Chain of Cytochrome c (cow) (P62894 2-105 limits assumed): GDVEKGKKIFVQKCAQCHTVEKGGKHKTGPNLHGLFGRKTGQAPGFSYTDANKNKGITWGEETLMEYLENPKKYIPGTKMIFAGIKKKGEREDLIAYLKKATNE
Chain of Lysozyme (chicken) (P00698 19-147): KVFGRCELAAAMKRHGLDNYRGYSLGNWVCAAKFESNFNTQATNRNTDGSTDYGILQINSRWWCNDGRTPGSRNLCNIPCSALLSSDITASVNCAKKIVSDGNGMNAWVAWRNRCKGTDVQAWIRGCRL

B1: Camille (format not stated) (antibody, V domains shown)
VH: QVQLQQSGPGLVKPSQTLSLTCAISGESVSTSSAAWNWIRQSPSRGLEWLGRTYYRSKWKHEYAVSVKSRITINPDTSKNQFSLQLNSVTPEDTAVYYCARDRYYYSAFDYWGQGTLVTVSS
VL: QSALTQPASVSGSPGQSITISCTGTSSDVGGYNSVSWYQQHPGKAPKLLIYAVSNRPSGVSNRFSGSKSGNTASLTISGLQAEDEADYYCASYDERFTRVFGGGTKLTVLG
notes: also called Antibody Camille
As for B1, the “signal normalized to reference antibody MOR03207” value was 1 ratio with Fibrinogen (bovine); 0 ratio with Lysozyme (chicken); 1 ratio with Cytokine 1 (human); 1 ratio in assay [1]; 1 ratio in assay [2]; 1 ratio in the assay with Cytochrome c (cow). The “signal normalized to reference antibody MOR03207” value with Lectin (Lens culinaris) and in the assay with Trypsinogen (cow) was 1 ratio each time.
